# Experimental data from US20040018516A1.
# Experiments:
# Factor Xa = Factor Xa (UniProt P00742); assay: cell-based or functional assay
# [1] = biological target: Factor VIIa/Tissue Factor (lipidated) complex (UniProt P08709); assay: cell-based or functional assay
# [2] = biological target: Ixolaris (recombinant, mature protein of 140 amino acids)
# Chain of Ixolaris (recombinant, mature protein of 140 amino acids) (Q964Q0 27-165 limits assumed): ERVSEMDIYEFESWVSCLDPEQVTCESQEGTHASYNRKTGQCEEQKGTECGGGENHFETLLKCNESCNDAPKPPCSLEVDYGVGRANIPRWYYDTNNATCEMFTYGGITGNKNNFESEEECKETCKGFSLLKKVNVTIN
# Chain of UniProt P08709 (P08709 61-466 limits assumed, chain 1 of 2): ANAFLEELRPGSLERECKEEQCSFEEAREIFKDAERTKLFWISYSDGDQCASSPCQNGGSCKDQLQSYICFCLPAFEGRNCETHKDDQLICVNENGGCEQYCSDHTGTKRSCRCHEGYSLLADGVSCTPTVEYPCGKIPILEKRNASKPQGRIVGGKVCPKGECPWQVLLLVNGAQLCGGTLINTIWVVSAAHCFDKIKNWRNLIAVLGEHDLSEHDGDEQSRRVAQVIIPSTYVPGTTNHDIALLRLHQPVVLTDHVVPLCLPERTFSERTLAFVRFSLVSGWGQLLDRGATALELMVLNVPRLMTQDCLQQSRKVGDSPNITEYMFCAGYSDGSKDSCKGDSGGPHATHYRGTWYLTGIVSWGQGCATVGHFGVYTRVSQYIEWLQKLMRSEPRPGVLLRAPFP
# Chain of UniProt P08709 (P13726 33-295 limits assumed, chain 2 of 2, further chain): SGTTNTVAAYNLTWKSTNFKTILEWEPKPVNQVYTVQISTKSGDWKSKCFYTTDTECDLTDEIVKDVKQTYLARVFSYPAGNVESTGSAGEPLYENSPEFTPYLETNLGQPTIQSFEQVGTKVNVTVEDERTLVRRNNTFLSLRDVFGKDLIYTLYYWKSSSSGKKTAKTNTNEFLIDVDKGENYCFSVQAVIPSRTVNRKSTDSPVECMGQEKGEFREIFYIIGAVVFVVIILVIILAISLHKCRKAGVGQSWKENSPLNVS
molecule,measurement,setting,value
"Ixolaris (recombinant, mature protein of 140 amino acids) (from UniProt Q964Q0 27-165)",ED50 of the increase of Factor Xa (125 pM) esterolytic activity on S2222,Factor Xa,159 pM
same,increase of amidolytic activity of Factor Xa (640 pM) by Ixolaris (400 pM),Factor Xa,40%
same,Residual activity (%) of VIIa/TF (6.4 pM)/S2288 (1 mM) with 32 nM Ixolaris,[1],0%
same,inhibition of Factor X (200 nM) activation after preincubation of Factor VIIa/TF (1 nM/0.2 pM) with 100 pM Ixolaris,[1],65%
"full-length human TFPI (recombinant, 4900PC) (from UniProt P10646 29-304)","IC50 of inhibition of Factor VIIa/TF-induced Factor X activation, at 15 nM Factor X",[1],0.61 nM
same,"IC50 of inhibition of Factor VIIa/TF-induced Factor X activation, at 75 nM Factor X",[1],0.62 nM
same,"IC50 of inhibition of Factor VIIa/TF-induced Factor X activation, at 200 nM Factor X",[1],0.625 nM
Ixolaris/DEGR-Factor X complex (from UniProt P00742 41-488),inhibition of Factor X (200 nM) activation after preincubation of Factor VIIa/TF with 100 pM Ixolaris/DEGR-Factor X,[1],> 85%
γ-carboxyglutamic acid domainless Factor Xa (des-Gla-Factor Xa) (protein) KDGDQCETSPCQNQGKCKDGLGEYTCTCLEGFEGKNCELFTRKLCSLDNGDCDQFCHEEQNSVVCSCARGYTLADNGKACIPTGPYPCGKQTLERIVGGQECKDGECPWQALLINEENEGFCGGTILSEFYILTAAHCLYQAKRFKVRVGDRNTEQEEGGEAVHEVEVVIKHNRFTKETYDFDIAVLRLKTPITFRMNVAPACLPERDWAESTLMTQKTGIVSGFGRTHEKGRQSTRLKMLEVPYVDRNSCKLSSSFIITQNMFCAGYDTKQEDACQGDSGGPHVTRFKDTYFVTGIVSWGEGCARKGKYGIYTKVTAFLKWIDRSMKTRGLPKAKSHAPEVITSSPLK,activity of 0.4 nM des-Gla-Factor Xa plus 1.6 nM Ixolaris (control without Ixolaris: 1.4±0.12 units of Vmax),[2],0.4 nM des-Gla-Factor Xa plus 1.6 nM Ixolaris: 2.78±0.1 units of Vmax
same,fold increase of des-Gla-Factor Xa proteolytic activity in the presence of 1.6 nM Ixolaris,[2],proteolytic activity increased 1.98 fold in the presence of Ixolaris
